US20110002945A1

Key:
[1] = biological target: fibrillar Aβ1-40 peptide (Homo sapiens (Human)) (UniProt P05067)
[2] = biological target: recombinant λ6-variable domain light chain Jto in fibrillar form; experiment: binding to plate-immobilized fibrils
[3] = biological target: recombinant λ6-variable domain light chain Jto in fibrillar form; experiment: EuLISA on plate-immobilized fibrils

fibrillar Aβ1-40 peptide (Homo sapiens (Human)), sequence (P05067 672-711 limits assumed): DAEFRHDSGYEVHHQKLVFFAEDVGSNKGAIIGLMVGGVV

B1: antibody heavy chain F1 (protein)
heavy: AMDWTWSILFLVAAATGAHSQVQLVQSGAEVKKPGASVKVSCKASGYTFSSNGIIWVRQAPGQGLEWLGWISGYNGKTRYAQKVQGRVTITTDTSTSTAYMELRSLRSDDTAVYYCAREKTMVRGAISGYSDYWGQGTLVTVSSASTKGPSVFPLAPSSKSTSGGTAALGCLVKDYFPEPVTVSWNSGALTSGVHTFPAVLQSSGLYSLSSVVTVPSSSLGTQTYICNVNHKPSNTKVDKKRVEPKSCDKTHTCPPCPAPELLGGPSVFLFPPKPKDTLMISRTPEVTCVVVDVSHEDPEVKFNWYVDGVEVHNAKTKPREEQYNSTYRVVSVLTVLDHQDWLNGKEYKCKVSNKALPAPIEKTISKAKGQPREPQVYTLPPSREELMTKNQVSLTCLVKGFYPSDIAVEWESNGQPENNYKTTPPVLDSDGSFFLYSKLTVDKSRWQQGNVFSCSVMHEALHNHYTQKSLSLSPGK
- Aβ fibril growth (recruitment of soluble biotinylated Aβ monomer to plate-bound Aβ1-40 fibrils, EuLISA) [1]: 1 µM
- affinity [2]: 20 nM
- EC50 [3]: 24 nM
- Max. Eu3+ [3]: 195 fmol
